Measured values from patent US20120088313A1 (JAPAN TOBACCO, published 2012).

Target: T1, BioEase tag-fused SITH-1 protein (human herpes virus 6 (HHV-6), biotinylated in vivo (E. coli) within the N-terminal BioEase tag; residue not stated)
T1 construct: Fusion of the BioEase biotinylation tag (N-terminal) with HHV-6 SITH-1, expressed in E. coli BL21 (DE3); Used as a crude extract on blots, or captured on a TM2 plate; also called BioEase-SITH-1 fusion protein; biotinylated SITH-1
T1 chain: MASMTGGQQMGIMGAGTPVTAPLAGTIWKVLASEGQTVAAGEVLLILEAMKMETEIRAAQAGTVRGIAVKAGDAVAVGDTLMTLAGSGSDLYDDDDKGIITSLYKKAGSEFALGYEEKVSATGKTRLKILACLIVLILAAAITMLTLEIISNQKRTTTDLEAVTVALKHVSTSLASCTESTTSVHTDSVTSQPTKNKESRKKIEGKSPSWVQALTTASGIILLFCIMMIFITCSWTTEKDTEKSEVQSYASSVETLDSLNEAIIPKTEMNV
Assay: capture of crude extract on TM2-coated microplate (binding through biotin)

B1: tamavidin 2 (other)
chain: MSDVQSSLTGTWYNELNSKMELTANKDGTLTGKYLSKVGDVYVPYPLSGRYNLQPPAGQGVALGWAVSWENSKIHSATTWSGQFFSESSPVILTQWLLSSSTARGDVWESTLVGNDSFTKTAPTEQQIAHAQLHCRAPRLK
notes: Purified TM2 immobilized on a New ELISA microplate; also called TM2; purified TM2
Does B1 bind?
Result: binds
